{"source": "paper PMC2810717", "substrate": "CC(=O)NCCCNCCCCNCCCN", "assay": "purified protein", "type": "biochemical, Homo sapiens", "conditions": "FAD; pH 8.3; 25.0 °C"}
{"protein": "spermine oxidase (SMO) (Homo sapiens) (protein) MQSCESSGDSADDPLSRGLRRRGQPRVVVIGAGLAGLAAAKALLEQGFTDVTVLEASSHIGGRVQSVKLGHATFELGATWIHGSHGNPIYHLAEANGLLEETTDGERSVGRISLYSKNGVACYLTNHGRRIPKDVVEEFSDLYNEVYNLTQEFFRHDKPVNAESQNSVGVFTREEVRNRIRNDPDDPEATKRLKLAMIQQYLKVESCESSSHSMDEVSLSAFGEWTEIPGAHHIIPSGFMRVVELLAEGIPAHVIQLGKPVRCIHWDQASARPRGPEIEPRGEGDHNHDTGEGGQGGEEPRGGRWDEDEQWSVVVECEDCELIPADHVIVTVSLGVLKRQYTSFFRPGLPTEKVAAIHRLGIGTTDKIFLEFEEPFWGPECNSLQFVWEDEAESHTLTYPPELWYRKICGFDVLYPPERYGHVLSGWICGEEALVMEKCDDEAVAEICTEMLRQFTGNPNIPKPRRILRSAWGSNPYFRGSYSYTQVGSSGADVEKLAKPLPYTESSKTAPMQVLFSGEATHRKYYSTTHGALLSGQREAARLIEMYRDLFQQGT", "values": [{"measurement": "Km", "value": "492 ± 97", "unit": "µM"}]}
